US20200277335A1 (LARRK BIO, published 2020)

Legend:
[1] = target: chemokine receptor CCR8 (UniProt P51685); assay: cell-based or functional assay
[2] = target: chemokine receptor CCR8 (UniProt P51685 1-355, limits assumed); assay: cell-based or functional assay
chemokine receptor CCR8 (UniProt P51685 1-355, limits assumed), sequence (P51685 whole entry): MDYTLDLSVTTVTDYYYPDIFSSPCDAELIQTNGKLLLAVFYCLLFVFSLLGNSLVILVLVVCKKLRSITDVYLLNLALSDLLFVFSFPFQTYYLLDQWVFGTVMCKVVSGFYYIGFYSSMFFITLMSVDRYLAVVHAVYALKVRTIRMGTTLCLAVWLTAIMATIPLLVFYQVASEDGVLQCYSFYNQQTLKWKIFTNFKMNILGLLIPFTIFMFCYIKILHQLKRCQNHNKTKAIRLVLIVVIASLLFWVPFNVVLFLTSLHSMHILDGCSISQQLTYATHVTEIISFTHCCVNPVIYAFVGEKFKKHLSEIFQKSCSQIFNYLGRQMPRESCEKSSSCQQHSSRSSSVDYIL

chemokine receptor CCR8 (UniProt P51685), sequence (P51685 whole entry): as above

Molecule | inhibition of 1-309 induced chemotaxis (IC50) [1] [nM] | also measured
MC148 fusion protein MC148p-TAT-6xHis | 200 | 
recombinant MC148 protein (from UniProt Q98314 25-104) (ligand) |  | inhibition of 1-309 induced chemotaxis of cells expressing CCR8 (IC50) [1]: 2 nM
synthetic MC148 protein (from UniProt Q98314 1-104) (ligand) | > 15000 | 
VSLARRKCCL [peptide fragment VL-10] |  | inhibition of 1-309 induced chemotaxis (IC50) [2]: > 15000 nM
